Here are results for 1 molecule from article PMC3315321.

This data set has as its target T1, RIG-I (human, UniProt O95786 1-925).
T1 sequence: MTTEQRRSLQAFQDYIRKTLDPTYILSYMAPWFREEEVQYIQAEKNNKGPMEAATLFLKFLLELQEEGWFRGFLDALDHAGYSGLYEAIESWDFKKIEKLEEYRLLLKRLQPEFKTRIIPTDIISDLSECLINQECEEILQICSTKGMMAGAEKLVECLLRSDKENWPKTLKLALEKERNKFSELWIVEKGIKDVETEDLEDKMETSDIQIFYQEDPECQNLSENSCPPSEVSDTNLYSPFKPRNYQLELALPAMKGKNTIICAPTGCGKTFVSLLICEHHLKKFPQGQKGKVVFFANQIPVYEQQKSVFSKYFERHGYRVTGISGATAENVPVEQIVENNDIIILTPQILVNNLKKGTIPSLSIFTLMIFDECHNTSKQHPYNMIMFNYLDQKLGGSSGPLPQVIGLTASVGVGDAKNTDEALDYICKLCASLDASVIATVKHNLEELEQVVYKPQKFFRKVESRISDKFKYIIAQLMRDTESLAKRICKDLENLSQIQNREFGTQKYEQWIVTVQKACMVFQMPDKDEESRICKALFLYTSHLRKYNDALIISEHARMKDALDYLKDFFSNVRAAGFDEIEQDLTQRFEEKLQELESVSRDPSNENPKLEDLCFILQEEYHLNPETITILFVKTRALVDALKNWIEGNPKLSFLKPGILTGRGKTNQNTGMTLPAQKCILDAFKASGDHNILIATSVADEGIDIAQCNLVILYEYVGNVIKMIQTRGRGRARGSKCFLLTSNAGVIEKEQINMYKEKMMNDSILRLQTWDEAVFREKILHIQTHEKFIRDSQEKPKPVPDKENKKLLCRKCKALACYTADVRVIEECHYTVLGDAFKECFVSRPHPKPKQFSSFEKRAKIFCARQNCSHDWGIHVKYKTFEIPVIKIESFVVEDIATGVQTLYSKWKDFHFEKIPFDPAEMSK
Nature of the data set: filter binding.

B1: CL9 (AP-treated) (XNA)
RNA: GGGAGAGCGGAAGCGUGCUGGGCCACCAUCCGUAACUAGCUAAUACUUGUUAUCUUUUUAUUUUCAUAACCCAGAGGUCGAUGGAUCCCCCC
modifications: 2'-F U and 2'-F C (all)
Turning to B1, the Kd was 37.2 nM.

The Kd is the free concentration of one partner at which half of the binding sites on the other are occupied at equilibrium, for simple one-to-one binding.
